Assay results published in PMC3765442.

Legend:
Conditions in all cases: remark: other sources report otherwise
[1] = biological target: T1, EB1-GFP (C-terminally EGFP-His-tagged human EB1) (human), Q15691; test: SEC-MALS; Superdex 200 10/30 with in-line multi-angle light scattering; 1 to 4 mg/ml injected in 100 µl (about 1 µM at the peak); 20 mM Tris-HCl pH 7.5, 300 mM NaCl, 2 mM DTT; room temperature; single experiments
T1 chain: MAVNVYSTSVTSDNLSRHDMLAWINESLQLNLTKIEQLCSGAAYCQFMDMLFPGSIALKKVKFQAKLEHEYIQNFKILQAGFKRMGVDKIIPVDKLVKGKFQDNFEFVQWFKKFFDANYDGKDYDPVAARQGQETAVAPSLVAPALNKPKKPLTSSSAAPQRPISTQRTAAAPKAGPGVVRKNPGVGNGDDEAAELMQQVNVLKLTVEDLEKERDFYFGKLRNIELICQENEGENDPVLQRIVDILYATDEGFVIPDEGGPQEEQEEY

[2] = biological target: T1, EB1-GFP (C-terminally EGFP-His-tagged …); test: AUC; fluorescence sedimentation velocity (GFP signal at 488 nm), 22°C; dilution series from about 500 to about 0.5 nM (monomer equivalents); 20 mM Tris-HCl pH 7.5, 300 mM NaCl, 0.2 mg/ml BSA, 2 mM DTT or 0.1 mM TCEP; samples incubated 16 hours at 22°C; dimer to monomers; apparent Kd
[3] = biological target: T2, EB1-GFP[A206K] (human), Q15691; test: as above
T2 chain: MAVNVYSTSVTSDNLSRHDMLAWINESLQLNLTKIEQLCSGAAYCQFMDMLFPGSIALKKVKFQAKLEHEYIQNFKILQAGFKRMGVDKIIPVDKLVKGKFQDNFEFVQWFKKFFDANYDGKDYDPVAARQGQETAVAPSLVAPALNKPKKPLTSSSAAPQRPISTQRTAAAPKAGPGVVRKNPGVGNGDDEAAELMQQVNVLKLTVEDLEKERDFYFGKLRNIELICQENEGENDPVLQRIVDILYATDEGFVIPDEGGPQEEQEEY

B1: EB1-GFP (C-terminally EGFP-His-tagged human EB1), Q15691 1-268 (natural protein)
chain: MAVNVYSTSVTSDNLSRHDMLAWINESLQLNLTKIEQLCSGAAYCQFMDMLFPGSIALKKVKFQAKLEHEYIQNFKILQAGFKRMGVDKIIPVDKLVKGKFQDNFEFVQWFKKFFDANYDGKDYDPVAARQGQETAVAPSLVAPALNKPKKPLTSSSAAPQRPISTQRTAAAPKAGPGVVRKNPGVGNGDDEAAELMQQVNVLKLTVEDLEKERDFYFGKLRNIELICQENEGENDPVLQRIVDILYATDEGFVIPDEGGPQEEQEEY
stoichiometry N [1]: 2
stoichiometry N [2]: 2

B2: EB1-GFP[A206K], Q15691 1-268 (natural protein)
chain: MAVNVYSTSVTSDNLSRHDMLAWINESLQLNLTKIEQLCSGAAYCQFMDMLFPGSIALKKVKFQAKLEHEYIQNFKILQAGFKRMGVDKIIPVDKLVKGKFQDNFEFVQWFKKFFDANYDGKDYDPVAARQGQETAVAPSLVAPALNKPKKPLTSSSAAPQRPISTQRTAAAPKAGPGVVRKNPGVGNGDDEAAELMQQVNVLKLTVEDLEKERDFYFGKLRNIELICQENEGENDPVLQRIVDILYATDEGFVIPDEGGPQEEQEEY
stoichiometry N [3]: 2
